Results taken from patent US12286661B2, “Methods for making high intensity sweeteners” (Firmenich Incorporated, priority 2018, dated 2025).

B1: SEQ ID NO. 1024/1025: CYP450 enzyme (DNA/protein SEQ ID NO) producing 11-OH cucurbitadienol (protein, listed as Citrullus lanatus)
chain: MWTILLGLATLAIAYYIHWVNKWKDSKFNGVLPPGTMGLPLIGETIQLSRPSDSLDVHPFIQSKVKRYGPIFKTCLAGRPVVVSTDAEFNHYIMLQEGRAVEMWYLDTLSKFFGLDTEWLKALGLIHKYIRSITLNHFGAESLRERFLPRIEESARETLHYWSTQPSVEVKESAAAMVFRTSIVKMFSEDSSKLLTGGLTKKFTGLLGGFLTLPLNLPGTTYNKCIKDMKEIQKKLKDILEERLAKGTGNDEDFLGQAIKDKESQQFISEEFIIQLLFSISFASFESISTSLTLILKFLADHPQVVKELEAEHEAIQKARADPDGPITWEEYKSMTFTLNVISETLRLGSVTPALLRKTTKEIQIKGYTIPEGWTVMLVTASRHRDPEVYKDPDTFNPWRWKELDSITVQKNFMPFGGGLRHCAGAEYSKVYLCTFLHILFTKYRWTKLKGGKIARAHILRFEDGLHVKFTPKE
B2: SEQ ID NO. 1042/1043: CYP450 enzyme (DNA/protein SEQ ID NO) producing 11-OH cucurbitadienol (protein, listed as Siraitia grosvenorii)
chain: MAIFFFFFFFLLVVSVVFVFLFLRASRFRRVRLPPGSLGLPLIGETLQLISAYKTENPEPFIDERVRRFGAVFTTHLFGEPTVFSADWETNRFILQNEEKLFECSYPGSISNLLGKHSLLLMKGNLHKRMHSLTMSFANSSIIRDHLLLDVDRLIRLNLDSWTGRIFLMEEAKKITFELAVKQLMSFDRCEWTQNLMKEYLLVIEGFFTVPLPLLSTTYRRAIRARTKVAEALGLVVRQRRKESDAGKRKNDMLGALLAAEDALSDDQIVDFLLALLVAGYETTSTTMTLAVKFLTEAPLALTQLQEEHEQIKARKKEADQHLQWNDYKSMPFTQCVVNETLRVANIISGVFRRAMTDINIKGYTIPKGWKVFASFRAVHLDHDHFKDARSFNPWRWQQNTSGSTVNAFTPFGGGPRLCPGYELARVELSVFLHHFVTQFSWVPAEDDKLVFFPTTRTQKRYPINVMRKNETRQRKDSLDSRHMKGQESSFDM
B3: SEQ ID NO. 1044/1045: CYP450 enzyme (DNA/protein SEQ ID NO) producing 11-OH cucurbitadienol (protein, listed as Siraitia grosvenorii)
chain: MDELKWFVLIPATFFLVVFVFEVLKRLNGWYYATKLWKIWDELPPGDMGWPLLGSTLSYINDFTAGQPQNFIRTFSNRYGKADMYKTHILGRASIIICTPEICRQVLTNEDKFKPSLPGNMKILSGRKSLMQVSKAEHRRLRRLTMAPISGHAALEMYISHIQATVVGGLEEWASIQRPVELVTEIKRLTFKVIWNIFMGSTSLDSSMGAMEALFSDVAVGFLSLPINFPGFYFHKSLKARKRLIEILQSIINEKRLVKKSKGESWEAKDMMDLMIEVKDEDGEELDDETIIDLIFGKLFAGHETSAFTAMWAVLFLTDHPQIFQKAKEEQEEIIRRRPSTQKGINLSDYKQMKFLSQVIDETLRVSCITSLLFREATADVEINGKIIPKGWRVLPWLGMLYMDENLFPSPQEFNPSRWDNFVPKPGAFIPFGVGNRFCPGSDLAKLEISIFLHYFLLNYKVERLNPKCHLTCLPFPHPTDKCLARVHKVA
B4: SEQ ID NO. 1046/1047: CYP450 enzyme (DNA/protein SEQ ID NO) producing 11-OH cucurbitadienol (protein, listed as Siraitia grosvenorii)
chain: MELWLWLLGASVGAYVFVFGILRNLNQWRFVTRHRNRYNLPPGDMGWPLIGTLLPFLQAFRSGRPDSFIHYFASTYGKIGMYKTYLFGSPSVIVCLPEVCRHVLMNDEQFVFGYSKATRILTGSKALNTVPKAEHRRLRRLIASLISGNDALSVYIGHVEGIVINCLQEWGSMKKPVEFLSEMKTVAFKVLLHIFIGSTSAAFIDKMEKLYTDFHLGFMSTPIDLPGTTFSRALKARNELIRIFENVLKEKRANLKSKEGENRKKDMTDLLLEVRDEDGQGLDDGCIIDLLIGFFFAGHETSAHSIMRAIMFLSENPETLLKAKAEQEQIVKARPADDQHKGLTMKEIKQMEYLSKVIDETLRKTSLAFTLSRETKVDVNLNGYTIPKGWKILVWTRAVHMDPEIYESPQKFDPSRWDNSKRRAGSFIPFGAGMRLCPGIDLSKLEIAIFLHYFIYGGFRLERVNPNCPENYLPLARPTDNCLARVVRDS
B5: SEQ ID NO. 1038/1039: CYP450 enzyme (DNA/protein SEQ ID NO) producing 11-OH cucurbitadienol (protein, listed as Siraitia grosvenorii)
chain: MLSFLGFAAFFFCFFLIHSLFKLFSAARRKLPLPPGSMGWPYMGETLQLYSQDPNVFFASKKKRYGPIFKSHILGYPCVMLSSPEAVKFVLVTKAHLFKPTFPASKERMLGKNAIFFHQGDYHAKLRRLVLRTFMPEAIRIMVPSIESIAKNTVQSWEGQLINTFQEMKMFAFEVSLLSIFGKDEALYFEDLKRCYYILEKGYNSMPINLPGTLFHKAMKARKELAHILNKILSTRREMKPDHNDLLGSFMGQKEGLTDEQIADNVIGLIFAARDTTASVLTWILKYLGENPSVLQAVTAEQEAIMKQKRSAHDNLTWGDTKNMPITSRVIQETLRVASVLSFTFREAVEDVEFDGYLIPKGWKVLPLFRNIHHSPEIFPQPDKFDPSRFEVAQKPNTYMPFGSGTHSCPGNELAKLEMLVLLHHLTTKYRWSVVGAQEGIQYGPFALPHNGLPIRISLKK
B6: SEQ ID NO. 1040/1041: CYP450 enzyme (DNA/protein SEQ ID NO) producing 11-OH cucurbitadienol (protein, listed as Siraitia grosvenorii)
chain: MEVELTNFWVMILAAVLGFCVFVFGFLRRFNDLWTMVKLGKKVYKTLPPGDMGWPLIGSSLWFYKAFSASGDPDSFIKHLRSRYGRVGMYKTHLFGKPAVIVTDPEICRRVYSDDKHFVMSYPKSVKILGTGSLSRIDHRITHRFMAAPINGSEALARYVGFIEQVVVRGLEEWSSMRKPIELLHEIKRLTFRIIIHVFMGSALDPHIPKLEKLYAELSAAVFVAFAIDVPGSTYHRALKAKEEIQNILRPVIEEKRRIIEKNEEMEDKCQLDAVIKGKNGKGEKIFDNDAIIDMLLGLLYAGHHTSAHGTMWALIQLLEHPQVYEKAKEEQELIMKQRPSTQKGLIFNEIKQMTYLVKVINEMLRRVSIVFANFREAATDVNINGYTIPKGWVVPVWIKGVHMDPQIYPNPEEFNPSRWDTHTPKPGAFIPFGFGNRFCPGNELAKLEITILLHHFLLKYRWERVNPKASITSVPMPSPIDQCLAKITAIPSS
B7: SEQ ID NO. 1048/1049: CYP450 enzyme (DNA/protein SEQ ID NO) producing 11-OH cucurbitadienol (protein, listed as Siraitia grosvenorii)
chain: MWLLLIGAIVVLSFTRWLYGWKNPKCNGKLPPGSMGFPLLGETLQFFSPNTSSDVPPFIRKRMDRYGPIFRTNLVGRPLIVSTDSDLNYFIFQQEGQLFQSWYPDTFTEIFGRQNVGSLHGFMYKYLKNMVLHLFGPESLRKMIPEVEAAATRRLRQWSSHNTVELKDETASMIFDLTAKKLISYDLESSSENLRDNFVAFIQGLISFPLNVPGTAYHKCLQGRKRAMRMLKNMLQERRANPRKQQIDFFDFVLEELEKDGTLLTEEIALDLMFVLLFASFETTSLALTAAIKFLLDNPHVLEELTAEHEGILKRRENADSGLTWGEYKSMTFTFQFINETVRLANIVPGIFRKALRDIQFKGYTIPAGWAVMVCPPAVHLNPEKYIDPLAFNPWRWEKSELNGASKHFMAFGGGMRFCVGTDFTKVQMAVFLHCLVTKYRFKAIKGGNIIRTPGLQFPNGFHIQITEK

Experiments:
Assay type in all cases: cell-based
[1] = test system: Saccharomyces cerevisiae, Yarrowia lipolytica and Candida bombicola; experiment: Tolerance to microbial hydrolysis: yeast strains incubated in YPD with 1 mg/ml compound, supernatants analysed by HPLC; conditions: after 3 days
Procedure: Yeast strains Saccharomyces cerevisiae, Yarrowia lipolytica and Candida bombicola, were incubated in YPD supplemented with 1 mg/ml Mogroside V or Compound 1. After 3 days, supernatants were analyzed by HPLC.

S. cerevisiae = experiment: Hydrolysis by hydrolytic enzymes of yeast grown in the presence of the compound, HPLC of lysed cells; conditions: S. cerevisiae
Procedure: (§1) S. cerevisiae or Y. lipolytica was grown in the presence of Mogroside V to allow the hydrolytic enzymes in the yeast to generate Mogroside IIIE. After 1 or 2 days, the cells were lysed in analyzed by HPLC to determine the mogroside content.
(§2) S. cerevisiae or Y. lipolytica was grown in the presence of Compound 1.

Y. lipolytica = experiment: as above; conditions: Y. lipolytica, 2 days of incubation
Procedure: as §1, §2

cucurbitadienol = experiment: 11-OH cucurbitadienol production from cucurbitadienol by CYP450s expressed in S. cerevisiae, LCMS; conditions: S. cerevisiae strain producing cucurbitadienol and expressing SgCPR; LCMS peak area of product vs. internal reference; hits over vector only control
Description: DNA was obtained through gene synthesis either through Genescript, IDT, or Genewiz. For some of the cucurbitadienol synthases, cDNA or genomic DNA was obtained through 10-60 day old seedlings followed by PCR amplification using specific and degenerate primers. DNA was cloned through standard molecular biology techniques or through yeast gap repair cloning (Joska et al., 2014) into one of the following overexpression vectors: pESC-Ura, pESC-His, or pESC-LEU. Gene expression was regulated by one of the following promoters; Gall, Gal10, Tef1, or GDS. Yeast transformation was performed using Zymo Yeast Transformation Kit II. Yeast strains were grown in standard media (YPD or SC) containing the appropriate selection with 2% glucose or 2% galactose for induction of heterologous genes. Yeast strains were grown in shake flask or 96 well plates at 30° ° C., 140-250 rpm. When indicated, lanosterol synthase inhibitor, Ro 48-8071 (Cayman Chemicals) was added (50 ug/ml). Yeast samples producing mogrol precursors, mogrol and mogrosides were processed through one of the following: • Cucurbitadienol and 11-OH Cucurbitadienol: Samples cell pellets were lysed (Yeast Buster) followed by ethyl acetate extraction, drying, and resuspension in methanol. • ·Mogrol and Mogrosides: Samples cell pellets were lysed in 50% ETOH, incubated at 80° C. for 30 min, filtered, dried and resuspended in MeOH for LCMS screening.
For analyzing 11-OH cucurbitadienol, the LCMS method included the use of C8 2.1×100 mm column, gradient 60 to 90% B for 6 minutes at flow rate of 0.55 ml/min. For the enzyme screening, the LCMS method used was a Waters Acquity UPLC Protein BEH C4, 2.1×100 mm, 1.7 μm column and a gradient of 40% to 80% over 5 minutes, 95% B from 5.1 to 5.6 minutes with a flow rate of 0.55 ml/min, and ESI source positive mode single ion monitoring of 425.4.
Additional CYP450s were expressed in S. cerevisiae strain producing cucurbitadienol and expressing SgCPR. DNA and protein sequences for the CYP450 enzymes are shown in SEQ IDs 871-890 and 1024-1049 (see Table 1).

Row | Molecule | Peak Area 11-OH CCB (cucurbitadienol) | further results
1 | C[C@H](CC[C@@H](O[C@@H]1O[C@H](CO[C@@H]2O[C@H](CO)[C@@H](O)[C@H](O)[C@H]2O)[C@@H](O)[C@H](O)[C@H]1O[C@@H]1O[C@H](CO)[C@@H](O)[C@H](O)[C@H]1O)C(C)(C)O)[C@H]1CC[C@@]2(C)[C@@H]3CC=C4[C@@H](CC[C@H](O[C@@H]5O[C@H](CO[C@@H]6O[C@H](CO)[C@@H](O)[C@H](O)[C@H]6O)[C@@H](O)[C@H](O)[C@H]5O)C4(C)C)[C@]3(C)[C@H](O)C[C@]12C [Mogroside V, reference compound] |  | hydrolysis by yeast strains (hydrolysis products by HPLC) [1]: hydrolyzed Mogroside V to Mogroside IIIE; mogroside content after incubation (S. cerevisiae; 1 day of incubation): produced a mixture of Mogroside V, Mogrosides IV, and Mogroside IIIE; mogroside content after incubation (S. cerevisiae; 2 days of incubation): substantially all of the mogrosides were converted to Mogroside IIIE; mogroside content after incubation (Y. lipolytica): produced mostly Mogroside IIIE
2 | B1 | 1.231 | 
3 | B2 | 0.3326 | 
4 | B3 | 0.2664 | 
5 | B4 | 0.2276 | 
6 | B5 | 0.3528 | 
7 | B6 | 0.3523 | 
8 | B7 | 0.2083 | 
